The source of these data is IntAct's records for PubMed 30026228.

The labels stand for the following.
B1: Zinc fingers and homeoboxes protein 2 (Homo sapiens), Q9Y6X8 (parent)
chain: MASKRKSTTPCMVRTSQVVEQDVPEEVDRAKEKGIGTPQPDVAKDSWAAELENSSKENEVIEVKSMGESQSKKLQGGYECKYCPYSTQNLNEFTEHVDMQHPNVILNPLYVCAECNFTTKKYDSLSDHNSKFHPGEANFKLKLIKRNNQTVLEQSIETTNHVVSITTSGPGTGDSDSGISVSKTPIMKPGKPKADAKKVPKKPEEITPENHVEGTARLVTDTAEILSRLGGVELLQDTLGHVMPSVQLPPNINLVPKVPVPLNTTKYNSALDTNATMINSFNKFPYPTQAELSWLTAASKHPEEHIRIWFATQRLKHGISWSPEEVEEARKKMFNGTIQSVPPTITVLPAQLAPTKVTQPILQTALPCQILGQTSLVLTQVTSGSTTVSCSPITLAVAGVTNHGQKRPLVTPQAAPEPKRPHIAQVPEPPPKVANPPLTPASDRKKTKEQIAHLKASFLQSQFPDDAEVYRLIEVTGLARSEIKKWFSDHRYRCQRGIVHITSESLAKDQLAIAASRHGRTYHAYPDFAPQKFKEKTQGQVKILEDSFLKSSFPTQAELDRLRVETKLSRREIDSWFSERRKLRDSMEQAVLDSMGSGKKGQDVGAPNGALSRLDQLSGAQLTSSLPSPSPAIAKSQEQVHLLRSTFARTQWPTPQEYDQLAAKTGLVRTEIVRWFKENRCLLKTGTVKWMEQYQHQPMADDHGYDAVARKATKPMAESPKNGGDVVPQYYKDPKKLCEEDLEKLVTRVKVGSEPAKDCLPAKPSEATSDRSEGSSRDGQGSDENEESSVVDYVEVTVGEEDAISDRSDSWSQAAAEGVSELAESDSDCVPAEAGQA

The variants in the experiment derive from B1. The following applies: with vhl_human VHL.
In the case of P427A;P440A;P464A, the “effect of a mutation on the interaction” value was “disrupting interaction strength”.

P440A: the “effect of a mutation on the interaction” value is reported as “decreasing interaction strength”.

As for P464A, the “effect of a mutation on the interaction” value is reported as “decreasing interaction strength”.

Take P427A: the “effect of a mutation on the interaction” value was “decreasing interaction strength”.
